Here are results for 4 molecules from patent publication US8192946B2, “Assays for detecting pregnancy-associated glycoproteins” (The Curators of The University of Missouri, priority 2008, dated 2012).

Common to all, as to assay type: biochemical
In assay [1] the test system is native bovine PAG (preparation 7-10). Description: inhibition of native PAG peptidase activity by pepstatin A. The settings on record: parallel samples in pH 3.5, 4 and 4.5 buffers; FIG. 1. The text has this: FIG. 1. pH profile of the activity of native bovine PAG (preparation 7-10) against a fluorescent peptidase substrate. The PAG was isolated by pepstatin affinity chromatography and further purified by anion exchange chromatography. Identical amounts of the 7-10 preparation were mixed with a fluorescent peptidase substrate in the presence of buffers adjusted to different pH levels. The extent of fluorescent product release is indicated on the y-axis and the pH conditions of each reaction are indicated on the x-axis. Parallel samples in the pH 3.5, 4 and 4.5 buffers were treated with pepstatin A, an inhibitor of aspartic peptidases, to determine if any observed activity was from aspartic peptidases.
In each of the examples shown in FIGS. 1-3, native bovine PAGs were bound to pepstatin-agarose matrix at pH 7 or 7.5, washed and eluted by increasing osmolarity (up to 1 M NaCl), including detergent (1% Triton X-100) and increasing the pH of the elution buffer. Different PAGs bind with differing affinities to the aspartic peptidase inhibitor, pepstatin A, and it is possible to isolate different members of the family by systematically altering binding and elution conditions (e.g. Green et al., 2005; Wooding et al., 2005). The differences in activity and pH optima for each of these preparations are illustrated in FIGS. 1-3. […]

The test system of assay [2] is fluorescent cathepsin D/E substrate. Description: proteolytic activity of purified recombinant PAGs as a function of pH. Particulars: 20 μM substrate; for pH of maximal activity: buffers of varying pH with 100 mM NaCl, FIGS. 5A, 5B. The text has this:
FIGS. 5A and 5B. The activity of purified recombinant bovine PAG-2 and -12 (FIG. 5A), and porcine PAG-2 (FIG. 5B), against a fluorescent cathepsin D substrate as a function of pH. In FIG. 5A, triangles represent boPAG-2 activity, which is at a maximum at pH 4, while squares represent boPAG-12 activity. In both panels (A and B), each activity point is normalized by the maximum activity (relative fluorescence units) of each peptidase at its optimal pH. The percent activity is shown on the Y-axis and the pH of respective buffers on the X-axis. The error bars represent standard deviation in results obtained from duplicate reads from two separate experiments.
Recombinant boPAG-2 and -12 and recombinant porcine PAG-2 (poPAG-2) were tested for proteolytic activity by incubation with 20 μM fluorescent cathepsin D/E substrate (Peptides International, as above) in buffers of varying pH containing 100 mM NaCl. Raw fluorescence data was transformed to % relative activity, with the highest value set at 100%. Maximal activity for boPAG-2 was at pH 4, while maximal activity for boPAG-12 and poPAG-2 was at pH 3.5 (FIGS. 5A and 5B).

Assay [3] concerns cathepsin D/E FRET substrate. As to the kind of experiment: anti-FLAG immuno-trap protease assay of recombinant candidate bovine PAGs at pH 3-7. The method, then: FIGS. 6A and 6B. Relative protease activity, as measured by fluorescence, from an immuno-trap protease assay of several recombinant PAGs isolated with an anti-FLAG monoclonal antibody. The reactions were performed under several pH conditions simultaneously (pH 2.5 to 7.0). Identical concentrations of each recombinant PAG lysate were added to the wells.
Table 5 and FIGS. 6A and 6B show results of protease activity (fluorescence) from immuno-trap assays of several additional recombinant bovine PAGs that were expressed as fusion proteins with a FLAG epitope tag. The PAGs were immobilized in the wells of an ELISA plate by using anti-FLAG in an immuno-protease assay format (as described above) and were analyzed for their proteolytic activity against the cathepsin D/E FRET substrate at pH increments ranging from 3-7. […] This protein was used as a negative control in the assay to establish the baseline for background fluorescence.

Square brackets hold non-standard residues; d marks the D form. Peptide text beside a SMILES is read from it. * marks the point of attachment. Sta = CC(C)C[C@H](N)[C@@H](O)CC(=O)O; Isovaleryl = CC(C)CC(=O)*

On to `CC(C)CC(=O)N[C@H](C(=O)N[C@H](C(=O)N[C@@H](CC(C)C)[C@@H](O)CC(=O)N[C@@H](C)C(=O)N[C@@H](CC(C)C)[C@@H](O)CC(=O)O)C(C)C)C(C)C` [pepstatin A] (Isovaleryl-VV[Sta]A[Sta]-OH), for which the “inhibition of peptidase activity” value in assay [1] was “inhibited”.

B1: boPAG-2: recombinant bovine PAG 2 expressed in a baculovirus expression system as FLAG-tagged fusion protein (protein)
chain: DYKDDDDKIVILPLKKMKTLRETLREKNLLNNFLEEQAYRLSKNDSKITIHPLRNYLDTAYVGNITIGTPPQEFRVVFDTGSANLWVPCITCTSPACYTHKTFNPQNSSSFREVGSPITIFYGSGIIQGFLGSDTVRIGNLVSPEQSFGLSLEEYGFDSLPFDGILGLAFPAMGIEDTIPIFDNLWSHGAFSEPVFAFYLNTNKPEGSVVMFGGVDHRYYKGELNWIPVSQTSHWQISMNNISMNGTVTACSCGCEALLDTGTSMIYGPTKLVTNIHKLMNARLENSEYVVSCDAVKTLPPVIFNINGIDYPLRPQAYIIKIQNSCRSVFQGGTENSSLNTWILGDIFLRQYFSVFDRKNRRIGLAPAV
B1: the “pH of maximal activity” value in assay [2] is 4.

B2: poPAG-2: recombinant porcine PAG-2, FLAG-tagged (protein)
chain: DYKDDDDKLVMIPLTKVKSVRESLREKGLLKNFLKEHPYNMIQNLLSKNSSHVQKFSYQPLRNYLDMVYVGNISIGTPPQQFSVVFDTGSSDLWVPSIYCKSKACVTHRSFNPSHSSTFHDRGKSIKLEYGSGKMSGFLGQDTVRIGQLTSTGQAFGLSKEETGKAFEHAIFDGILGLAYPSIAIKGTTTVIDNLKKQDQISEPVFAFYLSSDKEEGSVVMFGGVDKKYYKGDLKWVPLTQTSYWQIALDRITCRGRVIGCPRGCQAIVDTGTSMLHGPSKAVAKIHSLIKHFEKEYVVPCNARKALPDIVFTINNVDYPVPAQAYIRKYVVPCNARKALPDIVFTINNVDYPVPAQAYIRKNANNNRCYSTFEDIMDTLNQREIWILGDVFLRLYFTVYDEGQNRIGLAQAT
For the molecule B2, the “pH of maximal activity” value in assay [2] is on record as 3.5. In addition, the “activity at pH 2.5” value in assay [2] (pH 2.5, 100 mM NaCl) was “showed activity”.

B3: tsh (control): recombinant equine-TSH-beta expressed and purified in the same manner as the PAGs, negative control (protein)
chain: FCIPTEYMMHVERKECAYCLTINTTICAGYCMTRDINGKLFLPKYALSQDVCTYRDFMYKTVEIPGCPDHVTPYFSYPVAVSCKCGKCNTDYSDCIHEAIKANYCTKPQKSYVVEFSI
B3: the proteolytic activity entry in assay [3] (anti-FLAG immuno-trap, pH 3-7, compared with TSH-beta control) was “does not have proteolytic activity”. The “Relative fluorescent product release, pH 3.0” value in assay [3] (pH 3.0, immobilized with anti-FLAG) is 38349. Besides, the “Relative fluorescent product release, pH 4.0” value in assay [3] (pH 4.0, immobilized with anti-FLAG) stood at 33908. Also, in assay [3] (pH 5.0, immobilized with anti-FLAG), the “Relative fluorescent product release, pH 5.0” value is 34996.5. Also, the “Relative fluorescent product release, pH 6.0” value in assay [3] (pH 6.0, immobilized with anti-FLAG) stood at 28222.5. Further, in assay [3] (pH 7.0, immobilized with anti-FLAG), the “Relative fluorescent product release, pH 7.0” value was determined as 26590.5.
